From PMC10397247

Legend:
Test in all cases: two-hybrid library CCmax;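 note: natural log of median RNA to DNA barcode read ratio; higher means stronger binding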
[1] = target: T1, 4H454-AA; settings: mean of both orientations
T1 chain: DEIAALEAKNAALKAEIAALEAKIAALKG

[2] = target: T2, 4H48-AA; settings: mean of both orientations
T2 chain: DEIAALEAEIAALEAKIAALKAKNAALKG

[3] = target: T3, 4H780-AA; settings: mean of both orientations
T3 chain: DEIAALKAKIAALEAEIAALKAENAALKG

[4] = target: T4, 4H605-AA; settings: mean of both orientations
T4 chain: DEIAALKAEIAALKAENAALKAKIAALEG

[5] = target: T5, 4H1867-AA; settings: mean of both orientations
T5 chain: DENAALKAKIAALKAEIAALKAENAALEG

[6] = target: T6, 4H1636-AA
T6 chain: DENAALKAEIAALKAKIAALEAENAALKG

[7] = target: T7, 4H2949-AA; settings: mean of both orientations
T7 chain: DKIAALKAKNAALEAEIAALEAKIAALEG

[8] = target: T8, 4H881-AA; settings: mean of both orientations
T8 chain: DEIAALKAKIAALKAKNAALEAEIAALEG

[9] = target: T9, 4H2277-AA; settings: mean of both orientations
T9 chain: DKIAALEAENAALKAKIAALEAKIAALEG

[10] = target: T10, 4H3921-AA; settings: mean of both orientations
T10 chain: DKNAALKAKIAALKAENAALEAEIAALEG

[11] = target: T11, 4H3112-AA; settings: mean of both orientations
T11 chain: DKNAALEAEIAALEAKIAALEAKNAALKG

[12] = target: T12, 4H3844-AA; settings: mean of both orientations
T12 chain: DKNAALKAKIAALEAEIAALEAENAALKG

[13] = target: T13, 4H2505-AA; settings: mean of both orientations
T13 chain: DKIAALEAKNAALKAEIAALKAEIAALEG

[14] = target: T14, 4H906-AA; settings: mean of both orientations
T14 chain: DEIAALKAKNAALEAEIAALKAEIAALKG

[15] = target: T15, 4H794-AA; settings: mean of both orientations
T15 chain: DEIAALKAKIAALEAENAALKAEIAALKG

[16] = target: T16, 4H3343-AA; settings: mean of both orientations
T16 chain: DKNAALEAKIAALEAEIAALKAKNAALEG

[17] = target: T17, 4H2944-AA; settings: mean of both orientations
T17 chain: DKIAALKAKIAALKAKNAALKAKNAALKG

[18] = target: T18, 4H2151-AA; settings: mean of both orientations
T18 chain: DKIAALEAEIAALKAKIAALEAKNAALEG

[19] = target: T19, 4H2575-AA; settings: mean of both orientations
T19 chain: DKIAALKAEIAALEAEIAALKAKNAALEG

[20] = target: T20, 4H335-AA; settings: mean of both orientations
T20 chain: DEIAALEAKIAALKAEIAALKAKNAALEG

[21] = target: T21, 4H2078-AA; settings: mean of both orientations
T21 chain: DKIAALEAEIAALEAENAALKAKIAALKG

[22] = target: T22, 4H2466-AA; settings: mean of both orientations
T22 chain: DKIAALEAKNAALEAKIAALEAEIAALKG

[23] = target: T23, 4H717-AA; settings: mean of both orientations
T23 chain: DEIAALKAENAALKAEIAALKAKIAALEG

[24] = target: T24, 4H342-AA; settings: mean of both orientations
T24 chain: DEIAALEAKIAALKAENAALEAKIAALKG

[25] = target: T25, 4H2754-AA; settings: mean of both orientations
T25 chain: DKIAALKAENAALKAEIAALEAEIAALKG

[26] = target: T26, 4H2837-AA; settings: mean of both orientations
T26 chain: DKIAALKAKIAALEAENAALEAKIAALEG

[27] = target: T27, 4H3655-AA; settings: mean of both orientations
T27 chain: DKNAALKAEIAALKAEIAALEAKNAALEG

[28] = target: T28, 4H2642-AA; settings: mean of both orientations
T28 chain: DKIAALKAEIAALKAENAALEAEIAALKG

[29] = target: T29, 4H566-AA; settings: mean of both orientations
T29 chain: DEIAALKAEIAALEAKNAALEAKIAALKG

[30] = target: T30, 4H2190-AA; settings: mean of both orientations
T30 chain: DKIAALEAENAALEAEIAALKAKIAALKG

[31] = target: T31, 4H2165-AA; settings: mean of both orientations
T31 chain: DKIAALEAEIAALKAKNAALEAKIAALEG

[32] = target: T32, 4H993-AA; settings: mean of both orientations
T32 chain: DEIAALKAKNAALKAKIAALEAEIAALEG

[33] = target: T33, 4H3427-AA; settings: mean of both orientations
T33 chain: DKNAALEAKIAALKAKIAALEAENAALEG

[34] = target: T34, 4H429-AA; settings: mean of both orientations
T34 chain: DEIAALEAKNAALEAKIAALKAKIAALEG

[35] = target: T35, 4H2617-AA; settings: mean of both orientations
T35 chain: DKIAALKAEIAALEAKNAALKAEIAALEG

[36] = target: T36, 4H2354-AA; settings: mean of both orientations
T36 chain: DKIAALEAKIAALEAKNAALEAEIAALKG

[37] = target: T37, 4H2729-AA; settings: mean of both orientations
T37 chain: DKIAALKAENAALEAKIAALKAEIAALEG

[38] = target: T38, 4H317-AA; settings: mean of both orientations
T38 chain: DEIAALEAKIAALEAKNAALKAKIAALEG

[39] = target: T39, 4H234-AA; settings: mean of both orientations
T39 chain: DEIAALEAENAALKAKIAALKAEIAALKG

[40] = target: T40, 4H678-AA; settings: mean of both orientations
T40 chain: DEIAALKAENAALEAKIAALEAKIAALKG

[41] = target: T41, 4H2883-AA; settings: mean of both orientations
T41 chain: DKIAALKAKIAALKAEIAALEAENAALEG

[42] = target: T42, 4H3606-AA; settings: mean of both orientations
T42 chain: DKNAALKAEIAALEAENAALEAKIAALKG

[43] = target: T43, 4H2393-AA; settings: mean of both orientations
T43 chain: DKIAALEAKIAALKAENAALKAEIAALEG

[44] = target: T44, 4H3627-AA; settings: mean of both orientations
T44 chain: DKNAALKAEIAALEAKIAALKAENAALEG

B1: 4H1636-AA (peptide)
chain: DENAALKAEIAALKAKIAALEAENAALKG
With B1 as the binder, how does the interaction score [1] read?
Its interaction score is -1.23.

What about the interaction score [2] of the same binder?
The interaction score was -1.07.

What about the interaction score [3] of the same binder?
Its interaction score is -1.3.

What about the interaction score [4] of the same binder?
The interaction score was -1.56.

What about the interaction score [5] of the same binder?
The interaction score was -0.897.

And the interaction score [6]?
The interaction score was 2.39.

What about the interaction score [7] of the same binder?
Its interaction score is -1.16.

What about the interaction score [8] of the same binder?
The interaction score was -1.46.

What about the interaction score [9] of the same binder?
The interaction score was -1.87.

What about the interaction score [10] of the same binder?
Its interaction score is -1.8.

And the interaction score [11]?
Its interaction score is -0.658.

What about the interaction score [12] of the same binder?
The interaction score was -0.519.

What about the interaction score [13] of the same binder?
The interaction score was -1.47.

What about the interaction score [14] of the same binder?
Its interaction score is -1.91.

What about the interaction score [15] of the same binder?
Its interaction score is -1.68.

And the interaction score [16]?
Its interaction score is -1.42.

And the interaction score [17]?
Its interaction score is -1.81.

What about the interaction score [18] of the same binder?
The interaction score was -0.999.

What about the interaction score [19] of the same binder?
Its interaction score is -0.963.

What about the interaction score [20] of the same binder?
Its interaction score is -1.41.

What about the interaction score [21] of the same binder?
Its interaction score is -1.57.

And the interaction score [22]?
Its interaction score is -2.07.

And the interaction score [23]?
The interaction score was -0.951.

What about the interaction score [24] of the same binder?
The interaction score was -1.29.

What about the interaction score [25] of the same binder?
Its interaction score is -1.42.

And the interaction score [26]?
Its interaction score is -1.5.

What about the interaction score [27] of the same binder?
Its interaction score is -0.763.

And the interaction score [28]?
Its interaction score is -1.33.

And the interaction score [29]?
Its interaction score is -1.41.

And the interaction score [30]?
The interaction score was -0.932.

What about the interaction score [31] of the same binder?
The interaction score was -1.82.

And the interaction score [32]?
The interaction score was -1.52.

What about the interaction score [33] of the same binder?
The interaction score was -0.846.

And the interaction score [34]?
Its interaction score is -1.27.

What about the interaction score [35] of the same binder?
The interaction score was -1.46.

And the interaction score [36]?
The interaction score was -1.49.

What about the interaction score [37] of the same binder?
The interaction score was -1.23.

And the interaction score [38]?
The interaction score was -1.74.

What about the interaction score [39] of the same binder?
Its interaction score is -1.95.

What about the interaction score [40] of the same binder?
Its interaction score is -1.1.

What about the interaction score [41] of the same binder?
Its interaction score is -1.16.

And the interaction score [42]?
The interaction score was -1.17.

What about the interaction score [43] of the same binder?
The interaction score was -0.706.

And the interaction score [44]?
Its interaction score is -0.519.
